Ends that are not written are not given here. Bounds are passed on as bounds.

In paper doi:10.1101/2023.10.03.560691 one finds stoichiometry N and Kd data, which are given here for 2 molecules.

Assay [1] concerns the target Phage λ Orf63, 6xHis-Flag affinity tagged (phage λ). Nature of the assay: SEC-MALS.
For assay [2] the target is unchanged. Nature of the assay: BLI.

Turning to “Phage λ Orf63, 6xHis-Flag affinity tagged (natural protein)”, in assay [1], the stoichiometry N stood at 2. As for GGLVPRGSGDTKELILAIARKVKEMIKNS (designed binder, also: fused to 6xHis-tagged ubiquitin) [6xHis-tagged ubiquitin fusion protein with the designed Orf63 binding peptide], the dissociation constant (Kd) in assay [2] was greater than 20 µM.
